Measured values: IntAct's records for PubMed 23328395

B1: Non-structural protein V (Simian virus 5 (strain W3)), P11207 (parent)
chain: MDPTDLSFSPDEINKLIETGLNTVEYFTSQQVTGTSSLGKNTIPPGVTGLLTNAAEAKIQESTNHQKGSVGGGAKPKKPRPKIAIVPADDKTVPGKPIPNPLLGLDSTPSTQTVLDLSGKTLPSGSYKGVKLAKFGKENLMTRFIEEPRENPIATSSPIDFKRGRDTGGFHRREYSIGWVGDEVKVTEWCNPSCSPITAAARRFECTCHQCPVTCSECERDT
partner: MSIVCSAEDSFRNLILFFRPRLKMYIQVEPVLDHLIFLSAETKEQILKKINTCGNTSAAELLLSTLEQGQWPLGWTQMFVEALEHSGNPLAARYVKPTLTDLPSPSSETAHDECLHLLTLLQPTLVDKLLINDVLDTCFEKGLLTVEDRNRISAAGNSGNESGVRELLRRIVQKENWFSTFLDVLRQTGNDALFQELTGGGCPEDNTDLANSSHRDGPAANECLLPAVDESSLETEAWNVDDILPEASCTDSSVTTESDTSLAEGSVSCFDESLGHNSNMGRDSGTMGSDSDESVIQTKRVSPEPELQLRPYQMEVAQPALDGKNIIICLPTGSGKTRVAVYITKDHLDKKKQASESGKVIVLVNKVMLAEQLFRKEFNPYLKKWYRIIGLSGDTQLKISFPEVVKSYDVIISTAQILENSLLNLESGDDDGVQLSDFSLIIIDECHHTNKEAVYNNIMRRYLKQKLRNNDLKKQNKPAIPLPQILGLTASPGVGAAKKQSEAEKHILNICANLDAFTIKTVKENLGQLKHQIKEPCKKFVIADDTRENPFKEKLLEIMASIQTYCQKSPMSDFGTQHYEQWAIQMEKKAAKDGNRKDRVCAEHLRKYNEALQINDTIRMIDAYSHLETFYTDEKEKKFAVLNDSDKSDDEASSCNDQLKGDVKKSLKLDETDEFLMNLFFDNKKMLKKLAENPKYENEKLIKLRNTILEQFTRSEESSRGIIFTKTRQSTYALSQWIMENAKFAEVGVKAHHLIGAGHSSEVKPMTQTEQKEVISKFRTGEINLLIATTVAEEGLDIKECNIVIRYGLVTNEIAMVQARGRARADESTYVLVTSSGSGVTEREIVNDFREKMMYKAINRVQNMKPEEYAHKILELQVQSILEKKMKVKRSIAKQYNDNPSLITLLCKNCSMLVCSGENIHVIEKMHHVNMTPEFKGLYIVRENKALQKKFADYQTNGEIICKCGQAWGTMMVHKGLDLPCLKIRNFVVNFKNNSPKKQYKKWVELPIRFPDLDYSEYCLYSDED
B2: Interferon-induced helicase C domain-containing protein 1 (Mus musculus), Q8R5F7-1 (parent)
chain: B1 partner
B3: Interferon-induced helicase C domain-containing protein 1 (Homo sapiens), Q9BYX4 (parent)
chain: MSNGYSTDENFRYLISCFRARVKMYIQVEPVLDYLTFLPAEVKEQIQRTVATSGNMQAVELLLSTLEKGVWHLGWTREFVEALRRTGSPLAARYMNPELTDLPSPSFENAHDEYLQLLNLLQPTLVDKLLVRDVLDKCMEEELLTIEDRNRIAAAENNGNESGVRELLKRIVQKENWFSAFLNVLRQTGNNELVQELTGSDCSESNAEIENLSQVDGPQVEEQLLSTTVQPNLEKEVWGMENNSSESSFADSSVVSESDTSLAEGSVSCLDESLGHNSNMGSDSGTMGSDSDEENVAARASPEPELQLRPYQMEVAQPALEGKNIIICLPTGSGKTRVAVYIAKDHLDKKKKASEPGKVIVLVNKVLLVEQLFRKEFQPFLKKWYRVIGLSGDTQLKISFPEVVKSCDIIISTAQILENSLLNLENGEDAGVQLSDFSLIIIDECHHTNKEAVYNNIMRHYLMQKLKNNRLKKENKPVIPLPQILGLTASPGVGGATKQAKAEEHILKLCANLDAFTIKTVKENLDQLKNQIQEPCKKFAIADATREDPFKEKLLEIMTRIQTYCQMSPMSDFGTQPYEQWAIQMEKKAAKEGNRKERVCAEHLRKYNEALQINDTIRMIDAYTHLETFYNEEKDKKFAVIEDDSDEGGDDEYCDGDEDEDDLKKPLKLDETDRFLMTLFFENNKMLKRLAENPEYENEKLTKLRNTIMEQYTRTEESARGIIFTKTRQSAYALSQWITENEKFAEVGVKAHHLIGAGHSSEFKPMTQNEQKEVISKFRTGKINLLIATTVAEEGLDIKECNIVIRYGLVTNEIAMVQARGRARADESTYVLVAHSGSGVIEHETVNDFREKMMYKAIHCVQNMKPEEYAHKILELQMQSIMEKKMKTKRNIAKHYKNNPSLITFLCKNCSVLACSGEDIHVIEKMHHVNMTPEFKELYIVRENKALQKKCADYQINGEIICKCGQAWGTMMVHKGLDLPCLKIRNFVVVFKNNSTKKQYKKWVELPITFPNLDYSECCLFSDED
partner: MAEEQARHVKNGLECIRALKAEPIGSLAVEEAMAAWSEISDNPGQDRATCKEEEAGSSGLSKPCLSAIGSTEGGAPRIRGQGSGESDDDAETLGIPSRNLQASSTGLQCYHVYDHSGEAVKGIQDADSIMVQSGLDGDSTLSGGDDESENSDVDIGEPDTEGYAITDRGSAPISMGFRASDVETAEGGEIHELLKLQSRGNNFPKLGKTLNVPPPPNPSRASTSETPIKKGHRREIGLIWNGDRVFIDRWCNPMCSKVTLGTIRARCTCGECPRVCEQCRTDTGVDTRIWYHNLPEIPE
B4: Antiviral innate immune response receptor RIG-I (Mus musculus), Q6Q899-1 (parent)
chain: MTAEQRQNLQAFRDYIKKILDPTYILSYMSSWLEDEEVQYIQAEKNNKGPMEAASLFLQYLLKLQSEGWFQAFLDALYHAGYCGLCEAIESWDFQKIEKLEEHRLLLRRLEPEFKATVDPNDILSELSECLINQECEEIRQIRDTKGRMAGAEKMAECLIRSDKENWPKVLQLALEKDNSKFSELWIVDKGFKRAESKADEDDGAEASSIQIFIQEEPECQNLSQNPGPPSEASSNNLHSPLKPRNYQLELALPAKKGKNTIICAPTGCGKTFVSLLICEHHLKKFPCGQKGKVVFFANQIPVYEQQATVFSRYFERLGYNIASISGATSDSVSVQHIIEDNDIIILTPQILVNNLNNGAIPSLSVFTLMIFDECHNTSKNHPYNQIMFRYLDHKLGESRDPLPQVVGLTASVGVGDAKTAEEAMQHICKLCAALDASVIATVRDNVAELEQVVYKPQKISRKVASRTSNTFKCIISQLMKETEKLAKDVSEELGKLFQIQNREFGTQKYEQWIVGVHKACSVFQMADKEEESRVCKALFLYTSHLRKYNDALIISEDAQMTDALNYLKAFFHDVREAAFDETERELTRRFEEKLEELEKVSRDPSNENPKLRDLYLVLQEEYHLKPETKTILFVKTRALVDALKKWIEENPALSFLKPGILTGRGRTNRATGMTLPAQKCVLEAFRASGDNNILIATSVADEGIDIAECNLVILYEYVGNVIKMIQTRGRGRARDSKCFLLTSSADVIEKEKANMIKEKIMNESILRLQTWDEMKFGKTVHRIQVNEKLLRDSQHKPQPVPDKENKKLLCGKCKNFACYTADIRVVETSHYTVLGDAFKERFVCKPHPKPKIYDNFEKKAKIFCAKQNCSHDWGIFVRYKTFEIPVIKIESFVVEDIVSGVQNRHSKWKDFHFERIQFDPAEMSV
B5: Non-structural protein V (measles virus (strai), P0C774 (parent)
chain: B3 partner
partner: B3 chain
B6: Antiviral innate immune response receptor RIG-I (Homo sapiens), O95786-1 (parent)
chain: MTTEQRRSLQAFQDYIRKTLDPTYILSYMAPWFREEEVQYIQAEKNNKGPMEAATLFLKFLLELQEEGWFRGFLDALDHAGYSGLYEAIESWDFKKIEKLEEYRLLLKRLQPEFKTRIIPTDIISDLSECLINQECEEILQICSTKGMMAGAEKLVECLLRSDKENWPKTLKLALEKERNKFSELWIVEKGIKDVETEDLEDKMETSDIQIFYQEDPECQNLSENSCPPSEVSDTNLYSPFKPRNYQLELALPAMKGKNTIICAPTGCGKTFVSLLICEHHLKKFPQGQKGKVVFFANQIPVYEQQKSVFSKYFERHGYRVTGISGATAENVPVEQIVENNDIIILTPQILVNNLKKGTIPSLSIFTLMIFDECHNTSKQHPYNMIMFNYLDQKLGGSSGPLPQVIGLTASVGVGDAKNTDEALDYICKLCASLDASVIATVKHNLEELEQVVYKPQKFFRKVESRISDKFKYIIAQLMRDTESLAKRICKDLENLSQIQNREFGTQKYEQWIVTVQKACMVFQMPDKDEESRICKALFLYTSHLRKYNDALIISEHARMKDALDYLKDFFSNVRAAGFDEIEQDLTQRFEEKLQELESVSRDPSNENPKLEDLCFILQEEYHLNPETITILFVKTRALVDALKNWIEGNPKLSFLKPGILTGRGKTNQNTGMTLPAQKCILDAFKASGDHNILIATSVADEGIDIAQCNLVILYEYVGNVIKMIQTRGRGRARGSKCFLLTSNAGVIEKEQINMYKEKMMNDSILRLQTWDEAVFREKILHIQTHEKFIRDSQEKPKPVPDKENKKLLCRKCKALACYTADVRVIEECHYTVLGDAFKECFVSRPHPKPKQFSSFEKRAKIFCARQNCSHDWGIHVKYKTFEIPVIKIESFVVEDIATGVQTLYSKWKDFHFEKIPFDPAEMSK
partner: B3 partner

Variants of: B1
Conditions: with Ifih1, Q8R5F7-1

Row | Variant | effect of a mutation on the interaction
1 | E174A | decreasing interaction strength

Variants of: B2
Conditions: with v_piv5 P/V

Row | Variant | effect of a mutation on the interaction
2 | R806L | disrupting interaction strength

Variants of: B3
Conditions: with v_measc P/V

Row | Variant | effect of a mutation on the interaction
3 | R806L | decreasing interaction strength

Variants of: B4
Conditions: with v_piv5 P/V

Row | Variant | effect of a mutation on the interaction
4 | L715R;E717G | increasing interaction strength

Variants of: B5
Conditions: with ifih1_human IFIH1, Q9BYX4

Row | Variant | effect of a mutation on the interaction
5 | E235A | decreasing interaction strength

Variants of: B6
Conditions: with v_measc P/V

Row | Variant | effect of a mutation on the interaction
6 | L714R | increasing interaction strength
7 | L714R;E716G | increasing interaction strength
